Measured values published in patent US20210347873A1 (SHANGHAI PHARMAEXPLORER, published 2021).

Assays:
[1] = molecular target: cynomolgus BLyS (full length, arginine to histidine at position 132) on CHO-K1 cells (cynomolgus); test: flow cytometry, CHO-K1 cynoBLyS cells, antibody 13.3 nM
[2] = molecular target: biotinylated hBLyS-ECD (human) (UniProt Q9Y275); test: ELISA, biotinylated hBLyS-ECD captured on streptavidin; antibody 2.67 nM
biotinylated hBLyS-ECD [3] = molecular target: T1, biotinylated hBLyS-ECD (human, UniProt Q9Y275 134-285, biotinylated with Biotin-X-X-NHS (molar ratio 7:1); sites not stated); test: ELISA on captured biotinylated hBLyS-ECD; antibody 66.7 nM
T1 construct: also called biotinylated immunogen; biotinylated hBLvS-ECD

biotinylated hBLyS-ECD [4] = molecular target: T1, biotinylated hBLyS-ECD; test: ELISA on captured biotinylated hBLyS-ECD; antibody 2.67 nM
biotinylated hBLyS-ECD [5] = molecular target: T1, biotinylated hBLyS-ECD; test: ELISA on captured biotinylated hBLyS-ECD; antibody 0.534 nM
biotinylated hBLyS-ECD [6] = molecular target: T1, biotinylated hBLyS-ECD; test: BAFF R-coated ELISA, biotinylated hBLyS-ECD bound in presence of antibody 0 nM
biotinylated hBLyS-ECD [7] = molecular target: T2, biotinylated hBLyS-ECD (human, UniProt Q9Y275 134-285, biotinylated with Biotin-X-X-NHS (molar ratio 7:1); sites not stated); test: competitive ELISA on biotinylated hBLyS-ECD; competitor L1D12
T2 construct: also called biotinylated immunogen; BLyS protein
Experimental: The purified human BLyS antibody and hybridoma antibody were subjected to competitive enzyme-linked immunosorbent assay and the epitopes binding by different antibodies were analyzed.
Purified BLyS antibody was first diluted to a final concentration of 1.0 μg/mL with PBS, then aliquoted into a 96-well ELISA plate at 50 μL per well, and the plate was subsequently sealed with plastic film and incubated at 4° C. overnight. On the next day the plate was rinsed four times with the plate washing buffer [PBS buffer containing 0.05% (v/v) Tween20] and mixed with blocking solution [PBS buffer containing 0.05% (v/v) Tween20 and 1% (w/w) BSA], and then blocked at 37° C. for 1 hour. The blocking solution was removed, and the competitive antibody and IgG control were diluted to a final concentration of 40 μg/mL with PBS and then aliquoted into the 96-well ELISA plate at 50 μL per well. The biotinylated hBLyS-ECD was then diluted with PBS to a final concentration of 2 ng/mL and pipetted into the 96-well ELISA plate at 50 μL per well. The final concentration of competitive antibody and hBLyS-ECD was 20 μg/mL and 1 ng/mL, respectively. After incubation at 37° C. for 1 hour, the plate was rinsed four times with the plate washing buffer [PBS buffer containing 0.05% (v/v) Tween20]. 100 μL per well of HRP-labeled (horseradish peroxidase) streptavidin (purchased from Sigma) was added into the plate and the plate was incubated at 37° C. for 1 hour. The plate was then washed four times with the plate washing buffer [PBS buffer containing 0.05% (v/v) Tween20]. 100 μL of TMB substrate was aliquoted into each well and after incubation at room temperature for 5 minutes, 100 μL of stop solution (1.0 N HCl) was aliquoted into each well. A₄₅₀ₙₘ values were read by an ELISA plate reader (SpectraMax M5e, purchased from Molecular Device) and the results were shown in Tables 18A-18B. […] The data shown in the table is the inhibitory rate (%) of the binding level of the original antibody to hBLyS-ECD after addition of the competitive antibody.

[8] = molecular target: T3, hBLyS-ECD (His-tagged extracellular domain of human BLyS protein, Ala134-Leu285) (human, UniProt Q9Y275 134-285); test: SPR (Biacore X100), antibody captured by anti-human Fc on CM5, hBLyS-ECD injected
T3 construct: Expressed in HEK293, purified on Ni column; also called immunogen
Experimental: Affinity constants were determined using a Biacore X100 instrument (purchased from GE Healthcare). Detailed operations and methods referred to the instrument manuals and detailed methods provided by manufacturers, specifically: determining affinity constant using a CM5 chip (Sensor Chip CM5, purchased from GE Healthcare). […] Then 1 M ethanolamine was injected in chip to block the remaining activation sites. After the antibody to be tested (i.e., the human BLyS antibody prepared by Embodiment 2) was captured by chip, 7 different gradient of immunogen dilutions (i.e., hBLyS-ECD) prepared by Embodiment 1 were injected and the binding and dissociation of antigen with antibody was detected by a Biacore instrument. The dissociation constant and binding constant were then fitted by Biacore X100 Evaluation Software 2.0, while the affinity constant was the ratio of dissociation constant to binding constant.

[9] = molecular target: T4, cynomolgus BLyS (full length, arginine 132 mutated to histidine) on CHO-K1 cells (cynomolgus, UniProt Q9Y275 1-285 (human entry)); test: flow cytometry (FACS) on CHO-K1 cynoBLyS cells, Alexa 488 secondary antibody
T4 construct: also called cyno BLyS; CHO-K1 cynoBLyS
T4 chain: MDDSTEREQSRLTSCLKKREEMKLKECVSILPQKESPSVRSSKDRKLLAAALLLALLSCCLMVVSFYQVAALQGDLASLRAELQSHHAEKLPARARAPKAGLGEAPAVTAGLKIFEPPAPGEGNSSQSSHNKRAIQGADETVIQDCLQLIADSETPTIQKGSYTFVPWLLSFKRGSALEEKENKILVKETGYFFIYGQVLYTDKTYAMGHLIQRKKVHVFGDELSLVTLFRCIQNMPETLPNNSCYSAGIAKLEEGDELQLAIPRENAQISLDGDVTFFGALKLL
Experimental: The medium was aspirated completely, and the cells were rinsed once with PBS buffer (purchased from Invitrogen) and then treated with cell dispersion solution (TrypLE™ Express Enzyme, purchased from Life technology) and collected. The detailed steps are as follows: the cells were rinsed once with PBS buffer, after counting, the cells were diluted to 2×10⁶ cells/ml with PBS buffer, blocked with 2% (w/w) fetal bovine serum and incubated on ice for 30 minutes. 200 μL of which per well was aliquoted into a 96-well FACS plate and centrifuged at 2000 rpm at 4° C., then each 100 μL of the lead antibodies obtained from Embodiment 1 and 2 were aliquoted into each well and incubated on ice for 1 hour. […] After centrifuged and rinsed 3 times with FACS buffer, cells were suspended with 200 μL of FACS buffer and the results were detected and analyzed by FACS (FACS Calibur, purchased from BD). It was shown in Tables 12-13 that the lead antibody could bind to human BLyS protein on the cell surface and the lead antibody could cross-react with cynomolgus BLyS. The data in the table is MFI, the average fluorescence intensity of the cell population.

mIgG Control (antibody)
MFI [1]: 20.7 MFI
OD450 nm [2]: 0.0659

hIgG Control (antibody)
MFI [1]: 26.7 MFI
OD450 nm [2]: 0.0956

B1: c8E7D9C7F5 (antibody, V domains shown)
VH: QVQLQQSGVELARPGASVKLSCKASGYTFTSYGISWVKQRTGQALEWIGEIYPRSGNTYYNEKFKGKATLTADKSSSTAYMELRSLTSEDSAVYFCARSGPITTLVATDYGMDYWGQGTSVTVSS
VL: DIVLTQSPASLAVSLGQRATISCRASKSVSTSSYSYMHWYQQKPGQPPKLLIKFASNLESGVPARFSGSGSGTDFTLNIHPVEEEDAATYYCQHSREFPYTFGGGTKLEIK
notes: also called chimeric antibody c8E7D9C7F5
OD450 nm (biotinylated hBLyS-ECD [3]): 3.31 OD450 nm
OD450 nm (biotinylated hBLyS-ECD [4]): 2.21 OD450 nm
OD450 nm (biotinylated hBLyS-ECD [5]): 1.97 OD450 nm
OD450 nm (biotinylated hBLyS-ECD [6]): 1.95 OD450 nm

B2: c97A3C2H4 (antibody, V domains shown)
VH: EVKLVESGGGLVQPGGSLKLSCAASGFTFSTYTMSWVRQTPEKRLEWVAYISYGGGSTSYPDTVKGRFTISRDNAKNTLYLQMSSLKSEDTAIYYCTRHVTVVENSMDYWGQGTSVTVSS
VL: DILLTQSPDILSVSPGERVSFSCRASQSIGTSIHWYQQRTNGSPRLLIKYVSESFSGTPSRFSGSGSGTAFTLTINSVESEDIADYYCQQTHSWPWTFGGGTKLEIK
notes: also called chimeric antibody c97A3C2H4
OD450 nm (biotinylated hBLyS-ECD [3]): 3.3 OD450 nm
OD450 nm (biotinylated hBLyS-ECD [4]): 2.25 OD450 nm
OD450 nm (biotinylated hBLyS-ECD [5]): 1.91 OD450 nm
OD450 nm (biotinylated hBLyS-ECD [6]): 1.91 OD450 nm

B3: 2-1G11 (antibody, V domains shown)
VH: EVQLVESRGGVVQPGRSLRLSCAASGFTFSSYGMHWVRQAPGKGLEWVAVISYDGSNKYYADSVKGRFTISRDNSKNTLYLQMNSLRAEDAAVYYCARDRVDILTGYSIYGMDVWGQGTTVTVSS
VL: EIVMTQSPATLSLSPGERATLSCRASQSVSSYLAWYQQKPGQAPRLLIYDASKRATGIPARFSGSGSGTDFTLTISSLEPEDFAVYYCQQRSNWPLTFGGGTKVEIK
notes: From a human naive scFv phage library; also called human BLyS antibody 2-1G11
inhibitory rate (%) (biotinylated hBLyS-ECD [7]): 91%
Kd [8]: 0.637 nM
koff [8]: 0.000946 s⁻¹
kon [8]: 1.48e+06 M⁻¹ s⁻¹

B4: L9G7 (antibody, V domains shown)
VH: QIQLVQSGAEVKKPGASVKVSCKASGYTFTSYGISWVRQAPGQGLEWMGWISAYNGNTNYAQKLQGRVTMTTDTSTSTAYMELRSLRSDDTAVYYCARTYYDILTGYYYYGMDVWGQGTTVTVSS
VL: EIVLTQSPGTLSLSPGERATLSCRTSQSVDTYLAWYQQKPGQAPRLLIYDASNRATGIPARFSGSGSGTDFTLTISSLEPEDFAVYYCQQRSNWPLTFGGGTKVEIK
notes: From a human naive scFv phage library; also called human BLyS antibody L9G7
inhibitory rate (%) (biotinylated hBLyS-ECD [7]): 97%
Kd [8]: 0.525 nM
koff [8]: 0.000244 s⁻¹
kon [8]: 465000 M⁻¹ s⁻¹

B5: L1D12 (antibody, V domains shown)
VH: QVQLVQSGGGLVQPGGSLRLSCAASGFTVSSNYMSWVRQAPGKGLEWVSVIYSGGSTYYADSVKGRFTISRDNSKNTLYLQMNSLRAEDTAVYYCARGFHDILTGYGMDVWGQGTTVTVSS
VL: SSELTQDPAVSVALGQTVRITCQGDSLRNYYAGWYQQKPGQAPVLVIYGKNNRPSGIPDRFSGSSSGNTASLTITGTQAEDEADYYCSSRDNSGTHLVEFGGGTKLTVL
notes: From a human naive scFv phage library; also called human BLyS antibody L1D12; LID12
inhibitory rate (%) (biotinylated hBLyS-ECD [7]): 94%
Kd [8]: 2.42 nM
koff [8]: 0.00136 s⁻¹
kon [8]: 561000 M⁻¹ s⁻¹

B6: 97A3C2H4 (antibody, V domains shown)
VH: EVKLVESGGGLVQPGGSLKLSCAASGFTFSTYTMSWVRQTPEKRLEWVAYISYGGGSTSYPDTVKGRFTISRDNAKNTLYLQMSSLKSEDTAIYYCTRHVTVVENSMDYWGQGTSVTVSS
VL: DILLTQSPDILSVSPGERVSFSCRASQSIGTSIHWYQQRTNGSPRLLIKYVSESFSGTPSRFSGSGSGTAFTLTINSVESEDIADYYCQQTHSWPWTFGGGTKLEIK
notes: Mouse hybridoma antibody purified on Protein G
EC50 (read off the curve) [9]: ~0.3 nM

B7: 111D10D6G3 (antibody, V domains shown)
VH: QVQLQQPGAELVKPGASVKMSCKASGYTFTRHWITWVKQRPGQGLEWIGDIFPGSGSINYNEKFKSEATLTVEKSSSTAYMQLSSLTSEDSAVYYCARGDVDVWGTGTTVTVSS
VL: DIQMTQSPSSLSASLGERVSLTCRASQEIRGYLSWLQQKPNGTIKRLIYAASTLDSGVPKRFSATRSGSDFSLTISSLESEDFADYYCLQYASYPFTFGSGTKLEIK
notes: as for B6
EC50 (read off the curve) [9]: ~0.1 nM

B8: L9G7 (antibody, human IgG1, V domains shown)
VH: QIQLVQSGAEVKKPGASVKVSCKASGYTFTSYGISWVRQAPGQGLEWMGWISAYNGNTNYAQKLQGRVTMTTDTSTSTAYMELRSLRSDDTAVYYCARTYYDILTGYYYYGMDVWGQGTTVTVSS
VL: EIVLTQSPGTLSLSPGERATLSCRTSQSVDTYLAWYQQKPGQAPRLLIYDASNRATGIPARFSGSGSGTDFTLTISSLEPEDFAVYYCQQRSNWPLTFGGGTKVEIK
EC50 (read off the curve) [9]: ~0.2 nM

B9: L1D12 (antibody, human IgG1, V domains shown)
VH: QVQLVQSGGGLVQPGGSLRLSCAASGFTVSSNYMSWVRQAPGKGLEWVSVIYSGGSTYYADSVKGRFTISRDNSKNTLYLQMNSLRAEDTAVYYCARGFHDILTGYGMDVWGQGTTVTVSS
VL: SSELTQDPAVSVALGQTVRITCQGDSLRNYYAGWYQQKPGQAPVLVIYGKNNRPSGIPDRFSGSSSGNTASLTITGTQAEDEADYYCSSRDNSGTHLVEFGGGTKLTVL
notes: also called LID12
EC50 (read off the curve) [9]: ~0.2 nM
